Patent US20170298146A1 (MODIQUEST B V, published 2017)
Non-standard residues stand in square brackets, D forms with d. No end group written: not given here. Cit = NC(=O)NCCC[C@H](N)C(=O)O

What was measured:
[1] = molecular target: T1, huPAD4 deiminated human recombinant histone H3 (human); assay: ELISA, 0.000128 ug/well
T1 construct: also called H3/p4
Protocol: (§1) CFC-1 and CFC-0 were coated at the same concentration and served as positive and negative controls, respectively, for specific anti-citrulline reactivity and as coating controls. Non-coated wells were used to test for aspecific binding of the antibodies. […] Detection of bound anti-citrulline antibodies was performed by incubating the wells with rabbit-anti-human-HRP (1:2000) for one hour at RT followed by incubation with TMB substrate. The resulting OD (y-axis) is a measure for antibody binding. H1=recombinant histone 1; H1/p2=huPAD2 recombinant histone 1; H1/p4=huPAD4 recombinant histone 1 and so forth (x-axis).

[2] = molecular target: T2, human recombinant histone H2B (human); assay: ELISA, 0.000128 ug/well
T2 construct: Non-deiminated
Protocol: as §1

[3] = molecular target: T3, huPAD4 deiminated human recombinant histone H2B (human); assay: ELISA, 0.000128 ug/well
T3 construct: also called H2B/p4
Protocol: as §1

[4] = molecular target: T4, huPAD2 deiminated human recombinant histone H2A (human); assay: ELISA, 0.000128 ug/well
T4 construct: also called H2A/p2
Protocol: as §1

[5] = molecular target: human recombinant histone H4 (human, UniProt P62805 2-103); assay: ELISA, 0.000128 ug/well
Protocol: as §1

[6] = molecular target: T5, huPAD2 deiminated human recombinant histone H2B (human); assay: ELISA, 0.000128 ug/well
T5 construct: also called H2B/p2
Protocol: as §1

[7] = molecular target: T6, huPAD2 deiminated human recombinant histone H3 (human); assay: ELISA, 0.000128 ug/well
T6 construct: also called H3/p2
Protocol: as §1

[8] = molecular target: T7, Histone 2A citrulline-containing peptide 3 (human, also: biotin label); assay: peptide ELISA, 0.000128 ug/well
T7 peptide: KSRSS[Cit]AGLQFP
Protocol: as §1, with “Biotin and citrulline-containing peptides derived from histone 2A were immobilized on NEUTRAVIDIN®-coated 96-well ELISA plates (0.3 μg/well). CFC-1” for “CFC-1”, “controls respectively” for “controls, respectively,”, “binding.” for “binding. H1=recombinant histone 1; H1/p2=huPAD2 recombinant histone 1; H1/p4=huPAD4 recombinant histone 1 and so forth (x-axis).”
(§2) Ninety-six-well ELISA plates were coated with NEUTRAVIDIN® (0.1 μg/well) by overnight incubation at 4° C. Wells were washed five times with PBS-TWEEN®-20 (PBS-T) and blocked by a one-hour incubation with PBS-T+1% Bovine serum albumin (BSA) at room temperature (RT). After five more washes with PBS-T, wells were incubated for one hour at RT with histone-derived citrulline and biotin-containing peptides (0.3 μg/well). […] Wells were washed five times with PBS-T and incubated with rabbit-anti-human-HRP (1:2000) for one hour at RT followed by five washes with PBS-T and three wash steps with PBS. Wells were incubated for five minutes with TMB substrate before stopping the reaction with 2 M H₂SO₄. Optical density was measured by 450 nm and is a measure for the affinity of the antibodies used.

[9] = molecular target: T8, Histone 2A citrulline-containing peptide 9 (human, also: biotin label); assay: peptide ELISA, 0.000128 ug/well
T8 peptide: DNKKT[Cit]IIPRHL
Protocol: as §1, with “Biotin and citrulline-containing peptides derived from histone 2A were immobilized on NEUTRAVIDIN®-coated 96-well ELISA plates (0.3 μg/well). CFC-1” for “CFC-1”, “controls respectively” for “controls, respectively,”, “binding.” for “binding. H1=recombinant histone 1; H1/p2=huPAD2 recombinant histone 1; H1/p4=huPAD4 recombinant histone 1 and so forth (x-axis).”
as §2

[10] = molecular target: T9, Histone 2A citrulline-containing peptide 2 (human, also: biotin label); assay: peptide ELISA, 0.000128 ug/well
T9 peptide: AKAKS[Cit]SSRAGL
Protocol: as §1, with “Biotin and citrulline-containing peptides derived from histone 2A were immobilized on NEUTRAVIDIN®-coated 96-well ELISA plates (0.3 μg/well). CFC-1” for “CFC-1”, “controls respectively” for “controls, respectively,”, “binding.” for “binding. H1=recombinant histone 1; H1/p2=huPAD2 recombinant histone 1; H1/p4=huPAD4 recombinant histone 1 and so forth (x-axis).”
as §2

[11] = molecular target: T10, Histone 2A citrulline-containing peptide 10 (human, also: biotin label); assay: peptide ELISA, 0.000128 ug/well
T10 peptide: TRIIP[Cit]HLQLAI
Protocol: as §1, with “Biotin and citrulline-containing peptides derived from histone 2A were immobilized on NEUTRAVIDIN®-coated 96-well ELISA plates (0.3 μg/well). CFC-1” for “CFC-1”, “controls respectively” for “controls, respectively,”, “binding.” for “binding. H1=recombinant histone 1; H1/p2=huPAD2 recombinant histone 1; H1/p4=huPAD4 recombinant histone 1 and so forth (x-axis).”
as §2

[12] = molecular target: T11, Histone 2A citrulline-containing peptide 11 (human, also: biotin label); assay: peptide ELISA, 0.000128 ug/well
T11 peptide: LQLAI[Cit]NDEELN
Protocol: as §1, with “Biotin and citrulline-containing peptides derived from histone 2A were immobilized on NEUTRAVIDIN®-coated 96-well ELISA plates (0.3 μg/well). CFC-1” for “CFC-1”, “controls respectively” for “controls, respectively,”, “binding.” for “binding. H1=recombinant histone 1; H1/p2=huPAD2 recombinant histone 1; H1/p4=huPAD4 recombinant histone 1 and so forth (x-axis).”
as §2

[13] = molecular target: T12, Histone 2A citrulline-containing peptide 5 (human, also: biotin label); assay: peptide ELISA, 0.000128 ug/well
T12 peptide: VGRVH[Cit]LLRKGN
Protocol: as §1, with “Biotin and citrulline-containing peptides derived from histone 2A were immobilized on NEUTRAVIDIN®-coated 96-well ELISA plates (0.3 μg/well). CFC-1” for “CFC-1”, “controls respectively” for “controls, respectively,”, “binding.” for “binding. H1=recombinant histone 1; H1/p2=huPAD2 recombinant histone 1; H1/p4=huPAD4 recombinant histone 1 and so forth (x-axis).”
as §2

[14] = molecular target: T13, CFC-1; assay: peptide ELISA, 0.000128 ug/well
T13 construct: Positive control for anti-citrulline reactivity; also called cfc1 XG
Protocol: as §1, with “Biotin and citrulline-containing peptides derived from histone 2A were immobilized on NEUTRAVIDIN®-coated 96-well ELISA plates (0.3 μg/well). CFC-1” for “CFC-1”, “controls respectively” for “controls, respectively,”, “binding.” for “binding. H1=recombinant histone 1; H1/p2=huPAD2 recombinant histone 1; H1/p4=huPAD4 recombinant histone 1 and so forth (x-axis).”
as §2

[15] = molecular target: T14, Histone 2A citrulline-containing peptide 6 (human, also: biotin label); assay: peptide ELISA, 0.000128 ug/well
T14 peptide: VHRLL[Cit]KGNYSE
Protocol: as §1, with “Biotin and citrulline-containing peptides derived from histone 2A were immobilized on NEUTRAVIDIN®-coated 96-well ELISA plates (0.3 μg/well). CFC-1” for “CFC-1”, “controls respectively” for “controls, respectively,”, “binding.” for “binding. H1=recombinant histone 1; H1/p2=huPAD2 recombinant histone 1; H1/p4=huPAD4 recombinant histone 1 and so forth (x-axis).”
as §2

[16] = molecular target: T15, msFibα XH (mouse, X at position 15 is citrulline; biotin label); assay: peptide ELISA, 10 ug/well
T15 peptide: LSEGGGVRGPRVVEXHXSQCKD
Protocol: (§3) Biotin and citrulline-containing peptides derived from fibrinogen and vimentin were immobilized on NEUTRAVIDIN®-coated 96-well ELISA plates (0.3 μg/well). CFC-1 and CFC-0 were coated at the same concentration and served as positive and negative controls respectively for specific anti-citrulline reactivity and as coating controls. Non-coated wells were used to test for aspecific binding of the antibodies. […] Detection of bound anti-citrulline antibodies was performed by incubating the wells with rabbit-anti-human-HRP (1:2000) for one hour at RT followed by incubation with TMB substrate. The resulting OD (y-axis) is a measure for antibody binding.
(§4) Biotin-labeled and citrulline-containing fibrinogen and vimentin peptides (Table 5) were also tested for reactivity with the therapeutic antibodies. Peptides were coated on 96-well NEUTRAVIDIN®-ELISA plates.

[17] = molecular target: T16, msVim XS/XL (mouse, also: biotin label); assay: peptide ELISA, 10 ug/well
T16 construct: also called mouse vimentin peptide
T16 peptide: YVT[Cit]SSAV[Cit]L[Cit]SSVP
Protocol: as §3, §4

[18] = molecular target: T17, msFibα XG (mouse, X at position 8 is citrulline; biotin label); assay: peptide ELISA, 10 ug/well
T17 peptide: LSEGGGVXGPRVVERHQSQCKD
Protocol: as §3, §4

[19] = molecular target: T18, huFibα XG (human, X at position 8 is citrulline; biotin label); assay: peptide ELISA, 10 ug/well
T18 peptide: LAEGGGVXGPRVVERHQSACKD
Protocol: as §3, §4

[20] = molecular target: T19, huFibα XH (human, X at position 15 is citrulline; biotin label); assay: peptide ELISA, 10 ug/well
T19 peptide: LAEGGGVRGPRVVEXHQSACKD
Protocol: as §3, §4

[21] = molecular target: T20, msFibβ XG (mouse, also: biotin label); assay: peptide ELISA, 10 ug/well
T20 peptide: EPTDSLDA[Cit]GHRPVDRR
Protocol: as §3, §4

[22] = molecular target: T13, CFC-1; assay: peptide ELISA, 10 ug/well
Protocol: as §3, §4

B1: RhmAb2.102 (antibody, human IgG1, lambda)
heavy: not shown
light: QSVLTQPPSMSAAPGQKVTISCSGSSSNIGNNYVSWYQQVPGTAPKLLIYDDNKRPSGIPGRFSGSKSATSATLGITGLQAGDEADYYCGSWDDNLSVVLFGGGTKLTVLGQPKAAPSVTLFPPSSEELQANKATLVCLISDFYPGAVTVAWKADSSPVKAGVETTTPSKQSNNKYAASSYLSLTPEQWKSHRSYSCQVTHEGSTVEKTVAPTECS
notes: Human IgG1 lambda; also called Rhm2.102
OD [1]: 0.06 OD
OD [2]: 0.052 OD
OD [3]: 0.053 OD
OD [4]: 0.063 OD
OD [5]: 0.06 OD
OD [6]: 0.051 OD
OD [7]: 0.066 OD
OD [8]: 0.063 OD
OD [9]: 0.055 OD
OD [10]: 0.075 OD
OD [11]: 0.057 OD
OD [12]: 0.059 OD
OD [13]: 0.059 OD
OD [14]: 0.749 OD
OD [15]: 0.054 OD
OD [16]: 0.154 OD
OD [17]: 3.69 OD
OD [18]: 3.03 OD
OD [19]: 2.73 OD
OD [20]: 0.179 OD
OD [21]: 3.8 OD
OD [22]: 3.89 OD
